These results are taken from patent US20190352359A1 (IMMATICS BIOTECHNOLOGIES, published 2019).

One experiment has as its target T1, HLA-A*24.
T1 construct: Monomers captured on streptavidin plates; also called peptide-receptive MHC molecules; MHC complexes
The experiment is described as follows: UV peptide-exchange ELISA (anti-b2m); yield grade ++ = >20%. The text has this:
(§1) Candidate peptides for T cell based therapies according to the present invention were further tested for their MHC binding capacity (affinity). The individual peptide-MHC complexes were produced by UV-ligand exchange, where a UV-sensitive peptide is cleaved upon UV-irradiation, and exchanged with the peptide of interest as analyzed. Only peptide candidates that can effectively bind and stabilize the peptide-receptive MHC molecules prevent dissociation of the MHC complexes. To determine the yield of the exchange reaction, an ELISA was performed based on the detection of the light chain (p2m) of stabilized MHC complexes. The assay was performed as generally described in Rodenko et al. (Rodenko et al., 2006)
(§2) 96 well MAXISorp plates (NUNC) were coated over night with 2 ug/ml streptavidin in PBS at room temperature, washed 4× and blocked for 1 h at 37° C. in 2% BSA containing blocking buffer. Refolded HLA-A*02:01/MLA-001 monomers served as standards, covering the range of 15-500 ng/ml. Peptide-MHC monomers of the UV-exchange reaction were diluted 100-fold in blocking buffer. Samples were incubated for 1 h at 37° C., washed four times, incubated with 2 ug/ml HRP conjugated anti-β2m for 1h at 37° C., washed again and detected with TMB solution that is stopped with […]. Absorption was measured at 450 nm. Candidate peptides that show a high exchange yield (preferably higher than 50%, most preferred higher than 75%) are generally preferred for a generation and production of antibodies or fragments thereof, and/or T cell receptors or fragments thereof, as they show sufficient avidity to the MHC molecules and prevent dissociation of the MHC complexes.
On the technique in general: An ELISA detects its analyte on a solid surface through an enzyme-linked reagent.
In the case of YGQSKPWTF (also called YGQSKPWTF) [PAX3-001], the peptide exchange yield fell in the range of 20 to 50%.
Take RALTETIMF (also called RALTETIMF) [ALP-011]: the peptide exchange yield fell in the range of 20 to 50%.
Same read-out and setting: to FSSTLVSLF (also called FSSTLVSLF) [MAGEC1-003] belongs 20 to 50%; to RSWENIPVTF (also called RSWENIPVTF) [C18orf54-001], 20 to 50%; to ASAALTGFTF (also called ASAALTGFTF) [SLC45A3-003], 20 to 50%.
Consider KTYLPTFETTI (also called KTYLPTFETTI) [ENP-002], for which the peptide exchange yield lay within 20 to 50%.
On the same count and under the same terms, to QFSHVPLNNF (also called QFSHVPLNNF) [ALX1-001] belongs 20 to 50%; to YLGKNWSF (also called YLGKNWSF) [SPNS3-006], 20 to 50%; to FRSWAVQTF (also called FRSWAVQTF) [NOS2-002], 20 to 50%.
For the molecule AAFPGAFSF (also called AAFPGAFSF) [CRB2-002], the peptide exchange yield lay within 20 to 50%.
As to TQLPAPLRI (also called TQLPAPLRI) [GPR45-001], the peptide exchange yield lay in the range of 20 to 50%.
The same measure, in the same setting: to KYMSRVLFVY (also called KYMSRVLFVY) [CHRNA9-002] belongs 20 to 50%; to YSLEHLTQF (also called YSLEHLTQF) [ZCCHC16-001], 20 to 50%.
EMFFSPQVF (also called EMFFSPQVF) [ACTL8-002] came in with a peptide exchange yield of 20 to 50%.
On the same count and under the same terms, next, WFFQGAQYW (also called WFFQGAQYW) [MMP11-024]: 20 to 50%; KQPANFIVL (also called KQPANFIVL) [LOC1001246-001]: 20 to 50%; YLCMLYALF (also called YLCMLYALF) [KCNK18-001]: 20 to 50%.
With VLASAHILQF (also called VLASAHILQF) [BTBD16-005], the peptide exchange yield was 20 to 50%.
Same read-out and setting: next, EFINGWYVL (also called EFINGWYVL) [MCOLN2-002]: 20 to 50%.
In turn, YQGSLEVLF (also called YQGSLEVLF) [MROH2A-006] came in with a peptide exchange yield of 20 to 50%.
Consider IWDALERTF (also called IWDALERTF) [ABCC11-005], for which the peptide exchange yield lay within 20 to 50%.
Same read-out and setting: next, SQHFNLATF (also called SQHFNLATF) [DNMT3B-003]: 20 to 50%.
In the case of THAGVRLYF (also called THAGVRLYF) [NUP155-012], the peptide exchange yield lay within 20 to 50%.
On the same count and under the same terms, next, KVFGSFLTL (also called KVFGSFLTL) [AGTR2-001]: 20 to 50%; RALLPSPLF (also called RALLPSPLF) [SPATA31D1-001]: 20 to 50%.
On the same count and under the same terms, next, AQHSLTQLF (also called AQHSLTQLF) [GPC2-002]: 20 to 50%; TQMDVKLVF (also called TQMDVKLVF) [GEN-003]: 20 to 50%; AVLRHLETF (also called AVLRHLETF) [CDK6-006]: 20 to 50%.
Consider TDLVQFLLF (also called TDLVQFLLF) [MAGEA10-003], for which the peptide exchange yield lay in the range of 20 to 50%.
Still for that read-out and setting: to RAMCAMMSF (also called RAMCAMMSF) [TGM4-002] belongs 20 to 50%; to YAYATVLTF (also called YAYATVLTF) [ABCC4-002], 20 to 50%; to GYGLTRVQPF (also called GYGLTRVQPF) [ACTL8-003], 20 to 50%.
On the same count and under the same terms, to THSGGTNLF (also called THSGGTNLF) [MMP12-019] belongs 20 to 50%; to SHIGVVLAF (also called SHIGVVLAF) [OR51E2-005], 20 to 50%.

For another experiment, the target named is T1, HLA-A*24. The experiment is described as follows: UV peptide-exchange ELISA (anti-b2m); yield grade +++ = >50.
Description: as §1, §2
As for NYFLDPVTI (also called NYFLDPVTI) [TRI-005], the peptide exchange yield is 50 to 75%.
Still for that read-out and setting: next, KALMSAFYTF (also called KALMSAFYTF) [MMP11-022]: 50 to 75%.
KTKRWLWDF (also called KTKRWLWDF) [COL11A1-004] came in with a peptide exchange yield of 50 to 75%.
Consider VLAPVSGQF (also called VLAPVSGQF) [FCRL5-009], for which the peptide exchange yield was in the range of 50 to 75%.
Same read-out and setting: next, FYPDEDDFYF (also called FYPDEDDFYF) [MYCN-002]: 50 to 75%; IYIIMQSCW (also called IYIIMQSCW) [FLT3-011]: 50 to 75%.
On the same count and under the same terms, next, KYYIATMAL (also called KYYIATMAL) [CHRNA9-003]: 50 to 75%; MSYSCGLPSL (also called MSYSCGLPSL) [KRT33A-001]: 50 to 75%; KYKQHFPEI (also called KYKQHFPEI) [MAGEB17-001]: 50 to 75%.
As for IHGIKFHYF (also called IHGIKFHYF) [NMUR2-004], the peptide exchange yield is 50 to 75%.
YSLLDPAQF (also called YSLLDPAQF) [SOX14-002]: the peptide exchange yield was 50 to 75%.
Same read-out and setting: next, FIPVAWLIF (also called FIPVAWLIF) [MRGPRX4-001]: 50 to 75%; LFDHGGTVFF (also called LFDHGGTVFF) [ANO7-003]: 50 to 75%.
The same measure, in the same setting: next, VYSSFVFNL (also called VYSSFVFNL) [NLRP4-006]: 50 to 75%; RSMEHPGKLLF (also called RSMEHPGKLLF) [ESR1-010]: 50 to 75%; GYFLAQYLM (also called GYFLAQYLM) [TRPM8-008]: 50 to 75%.
On the same count and under the same terms, to MYNMVPFF (also called MYNMVPFF) [DCT-002] belongs 50 to 75%; to VYSSFVFNLF (also called VYSSFVFNLF) [NLRP4-007], 50 to 75%.
In turn, DIYVTGGHLF (also called DIYVTGGHLF) [KLHDC7B-005] returned a peptide exchange yield of 50 to 75%.
With MHPGVLAAFLF (also called MHPGVLAAFLF) [MMP13-005], the peptide exchange yield is 50 to 75%.
Still for that read-out and setting: to EAYSYPPATI (also called EAYSYPPATI) [HMCN1-006] belongs 50 to 75%.
Molecule YIPMSVMLF (also called YIPMSVMLF) [HTR7-002] came in with a peptide exchange yield of 50 to 75%.
On the same count and under the same terms, to MMVTVVALF (also called MMVTVVALF) [QRFPR-003] belongs 50 to 75%.
Still for that read-out and setting: to QYAAAITNGL (also called QYAAAITNGL) [SALL3-002] belongs 50 to 75%.
Still for that read-out and setting: next, YYIGIVEEY (also called YYIGIVEEY) [HEPHL-007]: 50 to 75%.
Consider SYLKDPMIV (also called SYLKDPMIV) [DDX53-001], for which the peptide exchange yield fell in the range of 50 to 75%.
